What was measured:
[1] = molecular target: human recombinant HMGB1 protein (high-mobility group box-1) (human) (UniProt P09429); test: SPR; human recombinant HMGB1 immobilised on a CMDH chip (immobilisation buffer 10 mM S.A., pH 4.5); analytes flowed at 30 uL/min; running buffer PBS pH 7.4; association and dissociation 3 min each; room temperature; Reichert SR7500DC, Scrubber2
[2] = molecular target: human recombinant HMGB1 protein (high-mobility group box-1) (human) (UniProt P09429)

Chain of human recombinant HMGB1 protein (high-mobility group box-1) (human) (P09429 whole entry): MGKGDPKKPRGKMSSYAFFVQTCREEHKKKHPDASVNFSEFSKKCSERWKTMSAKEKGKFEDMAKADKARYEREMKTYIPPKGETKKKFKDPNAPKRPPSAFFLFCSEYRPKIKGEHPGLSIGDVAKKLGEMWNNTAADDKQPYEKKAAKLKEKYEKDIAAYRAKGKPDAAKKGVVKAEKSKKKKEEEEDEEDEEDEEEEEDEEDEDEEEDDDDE

Kd [1]	reduction of HUVEC proliferation in Transwell co-culture with U87MG (CCK-8, 24 h, 100 uM GL equivalent) [2]	Substance
165 nM	8.2%	lactoferrin human (Lf) (natural protein)
595 nM		lactoferrin-glycyrrhizin conjugate Lf-GL (1:4)
23.1 nM	13%	lactoferrin-glycyrrhizin conjugate Lf-GL (1:10)
32.3 nM		lactoferrin-glycyrrhizin conjugate Lf-GL (1:15)
